Experiment [1] concerns the target T1, HGFRECD-c-Myc (extracellular domain of HGFR with c-Myc tag, expressed in HEK293T cells) (UniProt P08581 25-932).
T1 construct: extracellular domain; also called HGFRECD-c-Myc-tag; not shown: c-Myc tag
The experiment in a line: co-IP from transfected HEK293T cells (FIG. 1F).

In a further experiment the test system is cancer cells. The following applies: comparison in the description; previous work; cited from earlier work.
Another experiment deals with T2, EpCAM (Homo sapiens, UniProt P16422).
T2 sequence (P16422 24-314): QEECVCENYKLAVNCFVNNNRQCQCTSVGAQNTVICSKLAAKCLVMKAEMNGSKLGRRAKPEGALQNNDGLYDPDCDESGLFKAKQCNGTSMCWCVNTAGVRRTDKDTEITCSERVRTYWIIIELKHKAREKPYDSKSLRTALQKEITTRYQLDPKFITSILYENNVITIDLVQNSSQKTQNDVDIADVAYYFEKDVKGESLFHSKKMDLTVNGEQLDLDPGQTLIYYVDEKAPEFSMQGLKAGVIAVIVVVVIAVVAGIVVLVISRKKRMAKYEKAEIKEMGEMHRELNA
The following applies: other anti-EpCAM antibodies, comparison in the description; cited from earlier work.

Another experiment relates to HT29 cells. Description: Apoptosis assay, annexin V-FITC/PI double labeling, HT29. The class given is cell-based, human. The following applies: 10 μg/ml 24 h, FIG. 7C. As to the method:
(§1) FIGS. 7A to 7G. EpAb2-6 binds EpEX and induces apoptosis by F(ab′)2 and inhibits regulated intramembrane proteolysis (RIP) activation and HGFR signaling. (FIG. 7A) Binding affinity of IgG EpAb2-6 (mouse) and F(ab′)2 to EpEX-His (1 μg/ml) coated overnight was checked using ELISA (OD450). (FIG. 7B) HCT116 cells were treated with 100 μg/ml control IgG, Fc, or F(ab′)2 of EpAb2-6 for 24 h. The apoptotic and necrotic cells were quantified by fluorescein annexin V-FITC/PI double labeling. (FIG. 7C) HCT116 and HT29 cells were treated with 10 μg/ml control IgG, MT201, humanized EpAb2-6 (hEpAb2-6) or mouse hybridoma EbAb2-6 (mEpAb2-6) for 24 h. The apoptotic and necrotic cells were quantified by fluorescein annexin V-FITC/PI double labeling. (FIG. 7D) HCT116 cells were treated with 10 μg/ml control IgG, MT201, hEpAb2-6 or mEpAb2-6 for 16 h, followed by treatment with EpEX-His (50 nM) for 15 min. Levels of phosphorylated HGFR, AKT, and ERK, and (FIG. 7E) RIP proteins ADAM17 and presenilin 2 were examined by Western blotting. Anti-EpCAM antibody and crizotinib coordinately induces apoptosis in colon cancer cells. (FIG. 7F) HCT116 and HT29 cells were treated with 10 μg/ml NMIgG or EpAb2-6 and 4 μM HGFR inhibitor crizotinib for 24 h. The apoptotic and necrotic cells were quantified by fluorescein annexin V-FITC/PI double labeling. (FIG. 7G) HCT116 and HT29 cells were treated with 10 μg/ml NMIgG or EpAb2-6 and 10 μM HGFR inhibitor crizotinib. Cell invasion was assessed by a Transwell assay with matrigel after 24 h.
(§2) Cells were seeded and treated with 10 μg/ml mAb or inhibitor for 6 h; an unrelated mouse myeloma immunoglobulin used at appropriate dilution served as the IgG2a (Invitrogen #02-6200) isotype control. Apoptotic cells were detected using Annexin V-FITC and PI, and were analyzed using a flow cytometer (BD Immmunocytometry Systems). Early apoptosis was measured with the Annexin V-FITC Apoptosis Detection kit II (BD Pharmingen). Late apoptotic nuclei were detected with propidium iodide (PI) staining.

The next experiment has as its system HCT116 cells. Description: Apoptosis assay, annexin V-FITC/PI double labeling, HCT116. The format is cell-based, human. The following applies: 10 μg/ml 24 h, FIG. 7C. As to the method:
as §1, §2

A further experiment relates to ADAM17 and presenilin 2. The experiment in a line: Western blotting of RIP proteins ADAM17 and presenilin 2 in HCT116 cells. The format is cell-based, human. The following applies: 10 μg/ml 16 h, then EpEX-His 50 nM 15 min, FIG. 7E. As to the method: as §1, with “(FIG. 7G) HCT116 and HT29 cells were treated with 10 μg/ml NMIgG or EpAb2-6 and 10 μM HGFR inhibitor crizotinib.” left out
Whole cell extracts were prepared with RIPA buffer (50 mM Tris-HCl pH7.4, 1% NP-40, 0.5% Sodium deoxycholate, 0.1% SDS, 150 mM NaCl, 2 mM EDTA, 50 mM NaF). Protein concentrations of the cell lysates were determined by the Bradford assay. […]
Appropriate horseradish peroxidase-associated secondary antibodies (Millipore) were applied and the membranes were incubated at room temperature (RT) for 1 h. The protein bands were subsequently visualized with chemiluminescence reagents (Millipore) and detected on a BioSpectrum 600 Imaging system (UVP). The protein level was quantified from band intensity using Gel-Pro analyzer 3.1 (Media Cybernetics).
For orientation: A western blot detects proteins with antibodies after separation by electrophoresis.

For the next experiment, the system named is HGFR signaling. Description: Western blotting of phosphorylated HGFR, AKT, ERK, FAK in HCT116 cells. The class given is cell-based, human. The following applies: HCT116; 10 μg/ml 16 h, then EpEX-His 50 nM 15 min; FIG. 7D. The protocol: FIGS. 2A to 2K. EpEX promotes tumor progression via HGFR signaling. (FIG. 2A) WT or EpCAM knockout (KO) HCT116 and HT29 cells treated with HGF (0.5 nM) for 15 min. The phosphorylation of HGFR, AKT, and ERK was examined by Western blotting. (FIG. 2B) WT or KO HCT116 and HT29 cells were treated with HGF (0.5 nM) with 2% FBS for the indicated times. Cell growth was examined by the WST-1 assay. (FIG. 2C) Starved HCT116 cells were treated with HGFR inhibitor SU11274 (SU, 10 μM) for 1 h then treated with 50 nM of EpEX-His for 15 min. The levels of phosphorylated HGFR, EGFR, AKT, and ERK were examined by Western blotting. HCT116 and HT29 cells were treated with 50 nM EpEX and SU (10 μM). (FIG. 2D) Cell growth was examined by WST-1 assay after treatment for indicated time. (FIG. 2E) HCT116 cells were treated with shLuc or HGFR shRNA then treated with 50 nM of EpEX-His for 15 min. The levels of phosphorylated HGFR, EGFR, ERK, and AKT were examined in HGFR knockdown HCT116 cells by Western blotting. (FIG. 2F) The levels of phosphorylated ADAM17 and presenilin 2 were examined by Western blotting. (FIG. 2G) Active β-catenin nuclear translocation was assay by using Western blotting. (H) HCT116 cells were treated with shLuc or HGFR shRNA then treated with 50 nM of EpEX-His for indicated times. Cell growth was examined by the WST-1 assay. (FIG. 2I) HCT116 cells after shLuc and shHGFR treatment were treated with 50 nM of EpEX-His with 2% FBS for 7 days. Colony formation was examined by crystal violet staining.
FIGS. 6A to 6J. EpAb2-6 inhibits EpCAM and HGFR signaling and promotes active β-catenin and Snail protein degradation via activating GSK3β. (FIG. 6A) HCT116 cells were treated with 10 μg/ml control IgG (normal mouse IgG, NMIgG) or mouse EpAb2-6 (EpAb2-6) for 16 h, followed by treatment with EpEX-His (50 nM) for 15 min. Levels of phosphorylated HGFR, AKT, FAK, GSK3β, ERK, ADAM17, and presenilin 2 were examined by Western blotting. (FIG. 6B) HCT116 cells were treated with 10 μg/ml control IgG or mouse EpAb2-6 for 16 h, followed by treatment without or with HGF (0.5 nM) for 15 min. Levels of phosphorylated HGFR, AKT, and ERK were examined by Western blotting. HCT116 cells were treated with mouse EpAb2-6 (10 μg/ml) and HGF (0.5 nM). (FIG. 6C) Cell migration was examined by the wound healing assay at the indicated times. (FIG. 6D) Cell invasion was assessed by a Transwell assay with matrigel after 24 h. (FIG. 6E) HCT116 cells were treated with NMIgG or EpAb2-6 for 6 h and then immunoprecipitated with anti-EpCAM (IP: EpCAM) or anti-HGFR (IP: HGFR) antibodies, followed by Western blotting. (FIG. 6F) EpEX-His (2 μg/ml) co-treated with 1 μg IgG or EpAb2-6 was added to HGFR-Fc-coated (1 μg/ml) ELISA plates and detected by TMB colorimetric peroxidase assay. (FIG. 6G) EMT associated protein levels were detected by Western blotting in HCT116 cells treated with NMIgG or EpAb2-6 for 24 h. (FIG. 6H) Protein expression was analyzed by Western blotting in HCT116 cells after treatment with EpAb2-6 and 2 μM GSK3β inhibitor (BIO) for 24 h. Quantification of the normalized protein expression in the bottom panel. (FIG. 6I) HCT116 cells were treated with 10 μM MG132 and EpAb2-6 for 6 h before cell collection and subsequent Western blotting. (FIG. 6J) Stability of Snail protein in HCT116 cells treated with NMIgG or EpAb2-6. Cells were treated with cyclohexamide (CHX) 100 μg/ml at the indicated intervals and subjected to Western blotting.
FIGS. 7A to 7G. EpAb2-6 binds EpEX and induces apoptosis by F(ab′)2 and inhibits regulated intramembrane proteolysis (RIP) activation and HGFR signaling. (FIG. 7A) Binding affinity of IgG EpAb2-6 (mouse) and F(ab′)2 to EpEX-His (1 μg/ml) coated overnight was checked using ELISA (OD450). (FIG. 7B) HCT116 cells were treated with 100 μg/ml control IgG, Fc, or F(ab′)2 of EpAb2-6 for 24 h. The apoptotic and necrotic cells were quantified by fluorescein annexin V-FITC/PI double labeling. […]

Experiment [2] addresses T1, HGFRECD-c-Myc (extracellular domain of …). Description: co-IP with anti-c-Myc from transfected HEK293T cells (FIG. 1G).

“Also recorded” adds a separate entry of the source.

T1 sequence (P08581 25-932): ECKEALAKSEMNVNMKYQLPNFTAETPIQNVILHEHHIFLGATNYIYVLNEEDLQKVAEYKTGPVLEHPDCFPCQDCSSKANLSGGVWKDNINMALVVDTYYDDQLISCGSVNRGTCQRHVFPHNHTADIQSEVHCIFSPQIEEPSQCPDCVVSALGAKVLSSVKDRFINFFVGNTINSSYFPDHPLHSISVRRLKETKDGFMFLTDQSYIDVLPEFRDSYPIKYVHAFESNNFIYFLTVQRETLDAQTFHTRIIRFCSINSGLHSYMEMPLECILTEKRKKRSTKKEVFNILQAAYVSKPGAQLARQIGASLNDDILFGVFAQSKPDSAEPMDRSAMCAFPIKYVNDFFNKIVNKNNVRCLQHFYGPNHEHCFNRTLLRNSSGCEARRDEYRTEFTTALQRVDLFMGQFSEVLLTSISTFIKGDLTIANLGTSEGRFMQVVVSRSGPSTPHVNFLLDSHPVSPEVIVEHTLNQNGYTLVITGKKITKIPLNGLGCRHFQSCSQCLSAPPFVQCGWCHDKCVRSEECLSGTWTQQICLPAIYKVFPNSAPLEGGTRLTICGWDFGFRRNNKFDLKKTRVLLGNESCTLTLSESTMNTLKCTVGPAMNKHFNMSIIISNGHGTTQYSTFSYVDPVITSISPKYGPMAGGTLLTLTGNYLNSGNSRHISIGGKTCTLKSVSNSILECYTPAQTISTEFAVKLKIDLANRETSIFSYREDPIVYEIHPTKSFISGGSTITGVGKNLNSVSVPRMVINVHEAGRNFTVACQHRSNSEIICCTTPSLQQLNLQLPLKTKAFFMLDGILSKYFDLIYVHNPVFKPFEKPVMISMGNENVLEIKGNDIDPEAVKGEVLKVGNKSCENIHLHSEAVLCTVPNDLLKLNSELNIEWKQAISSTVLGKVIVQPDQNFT

B1: EpCAMΔEGFII-V5 (other)
chain: QEECVCENYKLAVNCFVNNNRQCQCTSVGAQNTVICSKLAAKSERVRTYWIIIELKHKAREKPYDSKSLRTALQKEITTRYQLDPKFITSILYENNVITIDLVQNSSQKTQNDVDIADVAYYFEKDVKGESLFHSKKMDLTVNGEQLDLDPGQTLIYYVDEKAPEFSMQGLKAGVIAVIVVVVIAVVAGIVVLVISRKKRMAKYEKAEIKEMGEMHRELNA
notes: also called EGF like-domain deletion mutant EpCAM-V5; not shown: V5 tag
Consider B1, for which the binding result in experiment [1] is listed as “binds”.

B2: edrecolomab: other antibody targeting only the EGF I domain of EpCAM (antibody, chains of the INN, looked up, V domains shown)
VH: QVQLQQSGAELVRPGTSVKVSCKASGYAFTNYLIEWVKQRPGQGLEWIGVINPGSGGTNYNEKFKGKATLTADKSSSTAYMQLSSLTSDDSAVYFCARDGPWFAYWGQGTLVTVSA
VL: NIVMTQSPKSMSMSVGERVTLTCKASENVVTYVSWYQQKPEQSPKLLIYGASNRYTGVPDRFTGSGSATDFTLTISSVQAEDLADYHCGQGYSYPYTFGGGTKLEIK
B2: the “inducing apoptosis of cancer cells” value in the experiment with cancer cells is “failing to”. Moreover, the EpCAM domains bound result with EpCAM is “target only the well-described EGF I domain of EpCAM; also recorded: binding to domain I only”.

B3: EpCAMΔEGFI-V5 (other)
chain: QEESKLAAKCLVMKAEMNGSKLGRRAKPEGALQNNDGLYDPDCDESGLFKAKQCNGTSMCWCVNTAGVRRTDKDTEITCSERVRTYWIIIELKHKAREKPYDSKSLRTALQKEITTRYQLDPKFITSILYENNVITIDLVQNSSQKTQNDVDIADVAYYFEKDVKGESLFHSKKMDLTVNGEQLDLDPGQTLIYYVDEKAPEFSMQGLKAGVIAVIVVVVIAVVAGIVVLVISRKKRMAKYEKAEIKEMGEMHRELNA
notes: as for B1
On to B3, for which, in experiment [1], the binding result is “binds”.

B4: hEpAb2-6: humanized EpAb2-6 (antibody, V domains shown)
VH: VKLQESGPELKKPGETVKISCKASGYTFTDYSMHWVKQAPGKGLKWMGWINTETGEPTYADDFKGRFAFSLETSASTAYLQINNLKNEDTATYFCARTAVYWGQGTTVTVSS
VL: DIQMTQSPSSLSASLGERVSLTCRASQEISVSLSWLQQEPDGTIKRLIYATSTLDSGVPKRFSGSRSGSDYSLTISSLESEDFVDYYCLQYASYPWTFGGGTKLEIKRADAAPTVS
Consider B4, for which the apoptosis entry in the experiment on HT29 cells and with HCT116 cells was “inducing apoptosis” each time. Further, the “levels of phosphorylated ADAM17 and presenilin 2” value in the experiment with ADAM17 and presenilin 2 is reported as “decreased”. Besides, in the experiment on HGFR signaling, the “phosphorylation of HGFR, AKT, and ERK” value was “inhibited phosphorylation of HGFR, AKT, and ERK”.

B5: EpEXΔEGFI-His (ligand)
chain: QEESKLAAKCLVMKAEMNGSKLGRRAKPEGALQNNDGLYDPDCDESGLFKAKQCNGTSMCWCVNTAGVRRTDKDTEITCSERVRTYWIIIELKHKAREKPYDSKSLRTALQKEITTRYQLDPKFITSILYENNVITIDLVQNSSQKTQNDVDIADVAYYFEKDVKGESLFHSKKMDLTVNGEQLDLDPGQTLIYYVDEKAPEFSMQGLK
notes: EpEX lacking aa 27-59; also called EGF like-domain deletion mutant EpEX-His; soluble EpEX mutant protein; not shown: His tag
Consider B5, for which the binding result in experiment [2] is recorded as “binds”.

B6: EpEXΔEGFII-His (ligand)
chain: QEECVCENYKLAVNCFVNNNRQCQCTSVGAQNTVICSKLAAKSERVRTYWIIIELKHKAREKPYDSKSLRTALQKEITTRYQLDPKFITSILYENNVITIDLVQNSSQKTQNDVDIADVAYYFEKDVKGESLFHSKKMDLTVNGEQLDLDPGQTLIYYVDEKAPEFSMQGLK
notes: EpEX lacking aa 66-135; also called EGF like-domain deletion mutant EpEX-His; soluble EpEX mutant protein; not shown: His tag
Consider B6, for which, in experiment [2], the binding result is “binds”.
